In this test the target is S. pombe histones H3−H4 (S. pombe, UniProt P09988 1-136; P09322 1-103). The experiment in a line: SEC. (In gel filtration, larger molecules generally elute earlier.)

One molecule from PMC10942606 (eLife, 2023) can be followed below.

B1: SpCAF-1 complex (Pcf1-Pcf2-Pcf3), wild type, full length (complex, S. pombe)
chain 1: MNSESVDSDVAASTSNKGNELCSSSTDITSLSVSSPNESVIHSSHSASEADEYVCKLSYEGNRKKRIYNGSAEAGKEKKLQKQRAQEERIRQKEAERLKREKERQQREQEKKLREQEKIAAKKMKELEKLEKERIRLQEQQRRKEERDQKLREKEEAQRLRQEQILNKERQQLKLNNFFTKGVEKRIAPNENFVADKTDELNEFEKEFRPFFIKHQMSLSKYPSPNESDSFLDEVLSTSKSYPLKLNDIFTPSDAVSSANSLGVSNRNSENEVRQLMSAYQDPSVSKPQEILSCLSQIPIKFIFFYQDVRPPYFGSYTKTHSHGSNVLLNPWLEDEDIDYTYDSEAEWVADEEDDGEDLESEDEEVDNSDDIVEDGDNAFVDDEDDDKDSVNASNTHRSSGPLEVIVEGPVWDSKFLPDFNCLSLIEPISSFSASTYLQIDPKEDLWASQDTAPASSGMTIGPTSSLSDDLQVRFPSEDIPKFIEYVRNSHDNKVFLIENLRHMFPYVTKNIISETLGKVAVRKGKSVSDGWIIKENFASLLSS
chain 2: MRAEVLQIRWHYDANDDHTPIYSVDFQKNSLNKFATCGGDSKIRIWQLITSESSTKVEYLSTLSRHTQAVNVVRFNPEGNILATAGDEGTIMLWVPTNTPITTLADDAEELALAKEYWKVKIVCRSMGSEIYDLCWSVDSNFLIAGAMDNSLRLYDAHTGQLLTQKFDHSHYVQGVCWDPLNQYIVSESSDRSICLYEIQEEKKNPKKFQLVLKSRICRIEYNVTKFELISVTKPLNNDESSGISEPIETSNNNESPVSKHEALSSTANIVKDGSLERTEPPNSLNSKISYSLYCNETLVSFFRRPAFSPDGLLLVTPAGRLRPHGQPNFEVPYTAYIYTRGSITKQPVACLNGFKKPVIAVRFSPIHYELNSFSNFSFTSVSFNLPYRMVFAVACQDAVYIYDTQTCKPFYRAVNLHYSNLTDIAWNDDGNVLLMTSIDGFCSVITFEPGELGVKSQHKISLPEKRSASPSSIDDSQDNTAGGPATTTLIPRKVESSKVSKKRIAPTPVYP
chain 3: MNTELDMQNFEHIKFLENQISEDHFRWKKNSKHLYNLLITRTLTWPSLSIQWLSAMESITEKAVLKNRLLLGTHAAEGMPNFLQLADLDLPDFNQTILDPVKHYNEDTGELGGYSMQHSCKFQISQRILHNGDVNRVRHMPQNPNIIATMSSCGNAYIFDRTKYTSMPAEEFLPNISLIGHKKEGFGLSWNRQQNCRLVTAANDSKILEWDLNNFSRDTRCLTPVKDFHYDDSPVNDVEYHPHHTNLYIAVNDNGIAFICDNRLQQTCSKTVKASNPLFSVRHNPSIATLFALGSEQDLQLWDLRNLNKSVFNTSEDLSDNRLKVPSRLTLGGTSLSWSWRHSGRIVSACQEYCYVWNFNKANPLEFVHAGHKGTVNEVDFDPFEAQCIASVADDNELHIWKPNVIVN
As to B1, the binding result is reported as “binds”.
